Results: paper PMC5737488
pKd: −log10 of the molar value. Several values for one entry are separate records, joined by “and”; a condition that tells them apart may be missing. Equal entries are not always repeated.

Tests used:
[1] = target: vacant E. coli 70S ribosome (lacking bound mRNA and tRNAs) (E. coli) (UniProt P0AG67); assay: co-sedimentation
[2] = target: E. coli RNA polymerase core enzyme (α2ββ′ω) (E. coli) (UniProt P0A7Z4); assay: co-sedimentation

Substance | percent bound to the ribosome [1] | KD (fit assuming only monomeric holoenzyme) [1] | pKd [1] | stoichiometry N (ribosome per RNA polymerase) [2] | percent of RNA polymerase co-migrating with ribosomes [1] | stoichiometry N (RNA polymerase per ribosome) [1]
transcription elongation complex (core RNA polymerase with a bound DNA:RNA scaffold) (from UniProt P0A7Z4;P0A8V2;P0A8T7;P0A800) | 15% |  |  |  |  | 
E. coli RNA polymerase holoenzyme (core enzyme with bound sigma factor σ70) (from UniProt P0A7Z4;P0A8V2;P0A8T7;P0A800;P00579) (complex) | 31% | 1200 nM | 5.85 |  |  | 
vacant E. coli 70S ribosome (lacking bound mRNA and tRNAs) (from UniProt P0AG67;P0A7V0;P02358;P02359;P0A7X3;P0A7R9;P0A7L0;P0A7R1;P0A7K2;P0A7K6) (complex) |  |  |  | 1 |  | 
E. coli RNA polymerase core enzyme (α2ββ′ω) (from UniProt P0A7Z4;P0A8V2;P0A8T7;P0A800) (complex) | 90% |  | 6.03 |  | 80% | 2 and 1
